Assay [1] addresses T1, human CD3 epsilon subunit (CD3e), as cell surface CD3 on Jurkat cells and on naive human T cells (human, UniProt P07766 23-207).
T1 construct: On the cells CD3 epsilon is part of the whole CD3/TCR complex
Briefly: FACS on Jurkat cells expressing CD3.

Assay [2] deals with T2, CD3ed (CD3 epsilon/delta fusion protein) (human).
T2 construct: Expressed in HEK293 and purified on His60 resin and by SEC; also called soluble human CD3ed antigen; hCD3ed
T2 chain: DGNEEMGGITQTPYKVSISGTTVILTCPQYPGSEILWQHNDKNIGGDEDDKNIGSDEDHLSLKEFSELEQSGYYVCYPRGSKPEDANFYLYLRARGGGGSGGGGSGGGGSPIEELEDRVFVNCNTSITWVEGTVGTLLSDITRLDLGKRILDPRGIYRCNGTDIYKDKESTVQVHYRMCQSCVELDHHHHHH
In words: SPR, recombinant human CD3. Background: Surface plasmon resonance follows binding to a sensor surface in real time, without labels.

Assay [3] addresses T1, human CD3 epsilon subunit (CD3e), as …. In words: cell-based or functional assay.
The target is the same in assay [4]. Briefly: flow cytometry, cell surface binding to human CD3 on naive human T cells. The text has this:
Purified CD3 bispecific antibodies were titrated for cell surface binding to human CD3 on naïve human T cells purified from fresh human peripheral blood mononuclear cells (PBMCs), using the standard flow cytometry methods known in the art using BD LSRII Fortessa analyzer.

For assay [5] the target is unchanged. In words: flow cytometry titration on naive human T cells (PE-A Geo Mean against Ab in nM); Kd printed beside the legend. (In flow cytometry, cells or beads pass a laser one at a time.)

The record followed here is patent publication US20190382486A1 (Pfizer, published 2019).

Positions count from the first letter of the chain named.

B1: 2B5-0006 (2B5v6) (antibody, V domains shown)
VH: EVQLVESGGGLVQPGGSLRLSCAASGFTFSDYYMTWVRQAPGKGLEWVAFIRNQARGYTSDHNPSVKGRFTISRDNAKNSLYLQMNSLRAEDTAVYYCARDRPSYYVLDYWGQGTTVTVSS
VL: DIQMTQSPSSLSASVGDRVTITCTSSQSLFNVRSQKNYLAWYQQKPGKAPKLLIYWASTRESGVPSRFSGSGSGTDFTLTISSLQPEDFATYYCKQSYDLFTFGGGTKVEIK
notes: also called h2B5v6; parental 2B5v6
Regarding B1, in assay [1], the response was half-maximal at 9.8 nM (EC50).

B2: GUCY2C-1608 (GUCY2c-2B5v6) bispecific antibody (bispecific antibody)
chain 1: DIQLTQSPSSLSASVGDRVTITCRASESVDYYGSSLLQWYQQKPGKAPKLLIYAASKLASGVPSRFSGSGSGTDFTLTISSLQPEDFATYYCQQTRKAYTFGQGTKLEIKGGGSGGGGEVQLVESGGGLVQPGGSLRLSCAASGFTFSDYYMTWVRQAPGKGLEWVAFIRNQARGYTSDHNPSVKGRFTISRDNAKNSLYLQMNSLRAEDTAVYYCARDRPSYYVLDYWGQGTTVTVSSGCPPCPAPEAAGAPSVFLFPPKPKDTLMISRTPEVTCVVVDVSHEDPEVKFNWYVDGVEVHNAKTKPREEQYNSTYRVVSVLTVLHQDWLNGKEYKCKVSNKALPAPIEKTISKAKGQPREPQVCTLPPSREEMTKNQVSLWCLVKGFYPSDIAVEWESNGQPENNYKTTPPVLDSDGSFFLYSKLTVDKSRWQQGNVFSCSVMHEALHNHYTQKSLSLSPG
chain 2: DIQMTQSPSSLSASVGDRVTITCTSSQSLFNVRSQKNYLAWYQQKPGKAPKLLIYWASTRESGVPSRFSGSGSGTDFTLTISSLQPEDFATYYCKQSYDLFTFGGGTKVEIKGGGGSGGGGEVQLVESGGGLVQPGGSLRLSCAASGFTFSSYWMHWVRQAPGKGLEWIGEIKPSNELTNVHEKFKDRFTISVDKAKNSAYLQMNSLRAEDTAVYYCTRTITTTEGYWFFDVWGQGTLVTVSSGCPPCPAPEAAGAPSVFLFPPKPKDTLMISRTPEVTCVVVDVSHEDPEVKFNWYVDGVEVHNAKTKPREEQYNSTYRVVSVLTVLHQDWLNGKEYKCKVSNKALPAPIEKTISKAKGQPREPQVYTLPPCREEMTKNQVSLSCAVKGFYPSDIAVEWESNGQPENNYKTTPPVLDSDGSFFLVSKLTVDKSRWQQGNVFSCSVMHEALHNHYTQKSLSLSPG
notes: Bispecific diabody-Fc
Take B2: the Kd (commonly a measure of binding affinity in units of concentration) in assay [2] was found to be 128 nM. The “In vitro Cytotoxicity” value in assay [3] is 0.772 nM. The EC50 (usually the concentration giving half of the maximal effect) in assay [4] is 35.4 nM.

B3: GUCY2c-2B5 bispecific antibody (bispecific antibody, human IgG1)
chain 1: B2 chain 1 with S34T, L37M, A47P, K57N, L58V, A59E, A98V, Q172R
chain 2: DIQMTQSPSSLSASVGDRVTITCTSSQSLFNVRSRKNYLAWYQQKPGKAPKLLIYWASTRESGVPSRFSGSGSGTDFTLTISSLQPEDFATYYCKQSYDLFTFGGGTKVEIKGGGSGGGGEVQLVESGGGLVQPGGSLRLSCAASGYTFTSYWMHWVRQAPGKGLEWIGEIKPSNGLTNYIEKFKNRFTISVDKAKNSAYLQMNSLRAEDTAVYYCTRTITTTEGYWFFDVWGQGTLVTVSSGCPPCPAPEAAGAPSVFLFPPKPKDTLMISRTPEVTCVVVDVSHEDPEVKFNWYVDGVEVHNAKTKPREEQYNSTYRVVSVLTVLHQDWLNGKEYKCKVSNKALPAPIEKTISKAKGQPREPQVYTLPPCREEMTKNQVSLSCAVKGFYPSDIAVEWESNGQPENNYKTTPPVLDSDGSFFLVSKLTVDKSRWQQGNVFSCSVMHEALHNHYTQKSLSLSPG
notes: Bispecific diabody-Fc (knob-in-hole, effector null human IgG1 Fc); also called GUCY2c-0250
Regarding B3, the dissociation constant (Kd) in assay [5] was found to be 13.2 nM.
